These results are taken from US20200317768A1 (published 2020).

Common to all, as to assay: SPR (Biacore), antibody captured, FcgR analyte, 25 C
In assay [1] the target is T1, human FcγRIIb extracellular domain, C-terminal His-tag (human, UniProt P31994 43-217).
T1 construct: also called FcgRIIb (human); not shown: His-tag added to C-terminus
T1 sequence: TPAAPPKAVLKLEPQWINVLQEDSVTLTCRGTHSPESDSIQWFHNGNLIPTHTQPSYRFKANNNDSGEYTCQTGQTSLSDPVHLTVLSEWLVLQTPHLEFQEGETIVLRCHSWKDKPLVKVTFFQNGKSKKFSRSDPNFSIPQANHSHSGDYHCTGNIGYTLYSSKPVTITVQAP
The protocol: (§1) The kinetic analysis of interactions between these antibodies and FcγR was carried out using BIACORE® T200 or BIACORE® 4000 (GE Healthcare). HBS-EP+ (GE Healthcare) was used as the running buffer, and the measurement temperature was set to 25° C. A chip produced by immobilizing Protein A. Protein A/G or mouse anti-human IgG kappa light chain (BD Biosciences) onto a Series S Sensor Chip CM4 or CM5 (GE Healthcare) by the amine-coupling method was used. […] After the measurement, the antibody captured on the chip was washed off by allowing reaction with 10 mM glycine-HCl, pH1.5 and 25 mM NaOH so that the chip was regenerated and used repeatedly. The sensorgrams obtained as measurement results were analyzed by the 1:1 Langmuir binding model using the BIACORE® Evaluation Software to calculate the binding rate constant ka (L/mol/s) and dissociation rate constant kd (l/s), and the dissociation constant KD (mol/L) was calculated from these values. […] Regarding such interactions, KD values were calculated using the following 1:1 binding model described in BIACORE® T100 Software Handbook BR1006-48 Edition AE.
(§2) The behavior of interacting molecules according to the 1:1 binding model on BIACORE® can be described by Equation 1: Req=C·R max/(KD+C)+RI, wherein, Req is a plot of steady-state binding levels to analyte concentration. C is concentration, RI is bulk refractive index contribution in the sample, and Rmax is analyte binding capacity of the surface. When this equation is rearranged, KD can be expressed as Equation 2: KD=C·Rmax/(Req−RI)−C. KD can be calculated by substituting the values of Rmax, RI, and C into Equation 1 or Equation 2. From the current measurement conditions, RI=0, C=2 μmol/L can be used.

Assay [2] has as its target T2, human FcγRIIaR extracellular domain, C-terminal His-tag (human, UniProt P12318 34-217).
T2 construct: also called human FcγRIIa (type R); FcgRIIaR; not shown: His-tag added to C-terminus
T2 chain: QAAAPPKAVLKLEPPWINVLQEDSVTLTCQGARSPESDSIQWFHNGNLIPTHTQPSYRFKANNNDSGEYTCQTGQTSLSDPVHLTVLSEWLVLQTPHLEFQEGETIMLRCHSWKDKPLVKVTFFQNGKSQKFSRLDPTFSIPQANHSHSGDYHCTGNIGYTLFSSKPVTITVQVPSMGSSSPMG
The protocol: as §1, §2

Assay [3] concerns the target T3, cynomolgus monkey FcγRIIa1 extracellular domain, C-terminal His-tag (cynomolgus monkey).
T3 construct: also called cyno FcγRIIa1; cynoFcgRIIa1; not shown: His-tag added to C-terminus
T3 chain: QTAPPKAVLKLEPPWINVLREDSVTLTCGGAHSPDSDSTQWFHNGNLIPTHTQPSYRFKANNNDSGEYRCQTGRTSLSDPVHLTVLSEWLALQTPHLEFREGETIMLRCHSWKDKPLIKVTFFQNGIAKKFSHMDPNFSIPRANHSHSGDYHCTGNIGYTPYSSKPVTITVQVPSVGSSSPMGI
As for the experimental part: as §1, §2

For assay [4], the target named is T4, human FcγRIIIaV extracellular domain, C-terminal His-tag (human, UniProt P08637 17-208).
T4 construct: also called FcgRIIIaV; not shown: His-tag added to C-terminus
As for the experimental part: as §1, §2

In assay [5] the target is T5, cynomolgus monkey FcγRIIa2 extracellular domain, C-terminal His-tag (cynomolgus monkey).
T5 construct: also called cyno FcγRIIa2; cynoFcgRIIa2; not shown: His-tag added to C-terminus
T5 chain: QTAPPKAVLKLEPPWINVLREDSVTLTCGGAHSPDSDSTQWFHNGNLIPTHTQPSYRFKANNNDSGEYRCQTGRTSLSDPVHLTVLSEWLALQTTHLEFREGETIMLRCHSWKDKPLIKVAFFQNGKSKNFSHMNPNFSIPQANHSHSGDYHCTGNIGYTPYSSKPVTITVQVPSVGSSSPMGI
The protocol: as §1, §2

The target in assay [6] is T6, cynomolgus monkey FcγRIIIaS extracellular domain, C-terminal His-tag (cynomolgus monkey, UniProt A3RFZ7 21-206 (rhesus entry)).
T6 construct: also called cyno FcγRIIIaS; cynoFcγRIIIaS; not shown: His-tag added to C-terminus
The protocol: as §1, §2

The target of assay [7] is T7, cynomolgus monkey FcγRIIb extracellular domain, C-terminal His-tag (cynomolgus monkey).
T7 construct: also called cyno FcγRIIb; cynoFcγRIIb; not shown: His-tag added to C-terminus
T7 chain: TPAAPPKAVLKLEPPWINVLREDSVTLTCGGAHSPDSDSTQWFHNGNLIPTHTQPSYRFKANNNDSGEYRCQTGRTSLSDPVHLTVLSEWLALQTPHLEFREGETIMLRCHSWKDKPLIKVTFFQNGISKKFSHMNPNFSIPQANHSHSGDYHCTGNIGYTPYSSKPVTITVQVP
As for the experimental part:
as §1, §2

Assay [8] deals with T8, cynomolgus monkey FcγRIIa3 extracellular domain, C-terminal His-tag (cynomolgus monkey).
T8 construct: also called cyno FcγRIIa3; cynoFcgRIIa3; not shown: His-tag added to C-terminus
T8 chain: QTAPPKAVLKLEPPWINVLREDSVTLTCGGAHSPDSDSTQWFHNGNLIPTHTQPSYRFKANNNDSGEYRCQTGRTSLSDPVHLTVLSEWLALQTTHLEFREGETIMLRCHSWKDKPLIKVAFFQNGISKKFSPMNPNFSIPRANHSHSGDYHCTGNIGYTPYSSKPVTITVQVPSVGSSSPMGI
As for the experimental part: as §1, §2

T6 sequence (A3RFZ7 21-206): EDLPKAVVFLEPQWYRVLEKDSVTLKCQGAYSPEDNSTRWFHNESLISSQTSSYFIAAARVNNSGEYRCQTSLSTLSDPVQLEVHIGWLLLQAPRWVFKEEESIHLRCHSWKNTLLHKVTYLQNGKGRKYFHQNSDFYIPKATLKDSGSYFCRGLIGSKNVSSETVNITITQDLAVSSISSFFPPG
T4 sequence (P08637 17-208 F176V): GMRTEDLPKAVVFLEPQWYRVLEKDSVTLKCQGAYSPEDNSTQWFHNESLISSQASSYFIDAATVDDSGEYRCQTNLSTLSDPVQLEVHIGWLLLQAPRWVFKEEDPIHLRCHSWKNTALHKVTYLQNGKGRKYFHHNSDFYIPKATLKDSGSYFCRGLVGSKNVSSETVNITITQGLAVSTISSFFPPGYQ

B1: MS_M103205H795-SG1/M103202L889-SK1 (antibody, human IgG1, kappa)
heavy: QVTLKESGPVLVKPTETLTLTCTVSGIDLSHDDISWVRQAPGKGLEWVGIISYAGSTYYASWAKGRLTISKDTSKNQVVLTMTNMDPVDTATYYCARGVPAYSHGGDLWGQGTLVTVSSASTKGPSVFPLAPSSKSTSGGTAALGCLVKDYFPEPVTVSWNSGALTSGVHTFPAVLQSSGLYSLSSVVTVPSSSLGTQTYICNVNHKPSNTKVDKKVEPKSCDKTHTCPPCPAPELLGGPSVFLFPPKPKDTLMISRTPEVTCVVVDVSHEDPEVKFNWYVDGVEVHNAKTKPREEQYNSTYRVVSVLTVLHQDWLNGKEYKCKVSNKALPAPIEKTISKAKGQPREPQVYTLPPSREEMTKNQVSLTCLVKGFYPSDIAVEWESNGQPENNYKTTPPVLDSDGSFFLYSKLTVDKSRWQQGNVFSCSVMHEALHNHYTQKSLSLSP
light: DIVMTQSPATLSLSPGERATLSCTSSQSVYHANWLSWFQQKPGQPPKLLIYWASTLAYGVPSRFSGSGSGTDFTLTISSLQPEDAATYYCAGGYGGGRYAFGQGTKVEIKRTVAAPSVFIFPPSDEQLKSGTASVVCLLNNFYPREAKVQWKVDNALQSGNSQESVTEQDSKDSTYSLSSTLTLSKADYEKHKVYACEVTHQGLSSPVTKSFNRGEC
notes: Parent antibody; also called MS1032LO06-SG1
By Kd is commonly meant the equilibrium constant for the complex coming apart. On to B1, for which the Kd was found to be 4600 nM in assay [1]; 1100 nM in assay [2]; 3200 nM in assay [3]; 810 nM in assay [4]; 5100 nM in assay [5]; 360 nM in assay [6]. The results for the Kd in assay [7] and in assay [8] were 1800 nM and 17000 nM, respectively.

B2: M103205H795-MY228/M103202L889-SK1 (antibody, human IgG1, kappa)
heavy: QVTLKESGPVLVKPTETLTLTCTVSGIDLSHDDISWVRQAPGKGLEWVGIISYAGSTYYASWAKGRLTISKDTSKNQVVLTMTNMDPVDTATYYCARGVPAYSHGGDLWGQGTLVTVSSASTKGPSVFPLAPSSKSTSGGTAALGCLVKDYFPEPVTVSWNSGALTSGVHTFPAVLQSSGLYSLSSVVTVPSSSLGTQTYICNVNHKPSNTKVDKKVEPKSCDKTHTCPPCPAPELLGYPSVFLFPPKPKDTLMISRTPEVTCVVVDVSDEDPEVKFNWYVDGVEVHNAKTKPREELYNSTYRVVSVLTVLHQDWLNGKEYKCKVSNKALPKPIEKTISKAKGQPREPQVYTLPPSREEMTKNQVSLTCLVKGFYPSDIAVEWESNGQPENNYKTTPPVLDSDGSFFLYSKLTVDKSRWQQGNVFSCSVMHEALHNHYTQKSLSLSP
light: DIVMTQSPATLSLSPGERATLSCTSSQSVYHANWLSWFQQKPGQPPKLLIYWASTLAYGVPSRFSGSGSGTDFTLTISSLQPEDAATYYCAGGYGGGRYAFGQGTKVEIKRTVAAPSVFIFPPSDEQLKSGTASVVCLLNNFYPREAKVQWKVDNALQSGNSQESVTEQDSKDSTYSLSSTLTLSKADYEKHKVYACEVTHQGLSSPVTKSFNRGEC
As for B2, the dissociation constant Kd in assay [1] was found to be 300 nM; in assay [2] it was 100 nM; in assay [3], 3000 nM; in assay [4], 140000 nM; in assay [5] it was 3300 nM; in assay [6] it was 9700 nM. In assay [7], this molecule had a dissociation constant (Kd) of 1100 nM.

B3: M103205H795-MY142/M103202L889-SK1 (antibody, human IgG1, kappa)
heavy: QVTLKESGPVLVKPTETLTLTCTVSGIDLSHDDISWVRQAPGKGLEWVGIISYAGSTYYASWAKGRLTISKDTSKNQVVLTMTNMDPVDTATYYCARGVPAYSHGGDLWGQGTLVTVSSASTKGPSVFPLAPSSKSTSGGTAALGCLVKDYFPEPVTVSWNSGALTSGVHTFPAVLQSSGLYSLSSVVTVPSSSLGTQTYICNVNHKPSNTKVDKKVEPKSCDKTHTCPPCPAPELLEGPSVFLFPPKPKDTLMISRTPEVTCVVVDVSEEDPEVKFNWYVDGVEVHNAKTKPREEQYNSTYRVVSVLTVLHQDWLNGKEYKCKVSNKALPAPIEKTISKAKGQPREPQVYTLPPSREEMTKNQVSLTCLVKGFYPSDIAVEWESNGQPENNYKTTPMVLDSDGSFFLYSKLTVDKSRWQQGNVFSCSVMHEALHNHYTQKSLSLSP
light: DIVMTQSPATLSLSPGERATLSCTSSQSVYHANWLSWFQQKPGQPPKLLIYWASTLAYGVPSRFSGSGSGTDFTLTISSLQPEDAATYYCAGGYGGGRYAFGQGTKVEIKRTVAAPSVFIFPPSDEQLKSGTASVVCLLNNFYPREAKVQWKVDNALQSGNSQESVTEQDSKDSTYSLSSTLTLSKADYEKHKVYACEVTHQGLSSPVTKSFNRGEC
On to B3, for which the Kd in assay [1] is 950 nM; in assay [2], 170 nM; in assay [3], 4100 nM; in assay [4], 530 nM; in assay [5], 4900 nM; in assay [6] it was 140 nM. The equilibrium dissociation constant (Kd) is 1800 nM in assay [7] and 25000 nM in assay [8].

B4: M103205H795-MY229/M103202L889-SK1 (antibody, human IgG1, kappa)
heavy: QVTLKESGPVLVKPTETLTLTCTVSGIDLSHDDISWVRQAPGKGLEWVGIISYAGSTYYASWAKGRLTISKDTSKNQVVLTMTNMDPVDTATYYCARGVPAYSHGGDLWGQGTLVTVSSASTKGPSVFPLAPSSKSTSGGTAALGCLVKDYFPEPVTVSWNSGALTSGVHTFPAVLQSSGLYSLSSVVTVPSSSLGTQTYICNVNHKPSNTKVDKKVEPKSCDKTHTCPPCPAPELLGYPSVFLFPPKPKDTLMISRTPEVTCVVVDVSDEDPEVKFNWYVDGVEVHNAKTKPREELYNSTYRVVSVLTVLHQDWLNGKEYKCKVSNKALPKPIEKTISKAKGQPREPQVYTLPPSREEMTKNQVSLTCLVKGFYPSDIAVEWESNGQPENNYKTTPKVLDSDGSFFLYSKLTVDKSRWQQGNVFSCSVMHEALHNHYTQKSLSLSP
light: DIVMTQSPATLSLSPGERATLSCTSSQSVYHANWLSWFQQKPGQPPKLLIYWASTLAYGVPSRFSGSGSGTDFTLTISSLQPEDAATYYCAGGYGGGRYAFGQGTKVEIKRTVAAPSVFIFPPSDEQLKSGTASVVCLLNNFYPREAKVQWKVDNALQSGNSQESVTEQDSKDSTYSLSSTLTLSKADYEKHKVYACEVTHQGLSSPVTKSFNRGEC
In the case of B4, the Kd amounted to 150 nM in assay [1]; 81 nM in assay [2]; 1500 nM in assay [3]; 2200 nM in assay [5]; 4200 nM in assay [6]; 470 nM in assay [7]. Binding in assay [8] was characterised by a dissociation constant (Kd) of 1900 nM.
